This is an account of results in PMC11772769, “Selective cargo and membrane recognition by SNX17 regulates its interaction with Retriever” (EMBO Reports, 2024).

For experiment [1], the target named is T1, VPS26C (Homo sapiens, UniProt O14972).
T1 construct: His-Sumo3 (N, cleaved yes); made in house; host or cells: Escherichia coli BL21(DE3)
Put plainly: Isothermal titration calorimetry VPS26C with SNX17FERM-CT. In kind it is binding. The conditions noted are these: ITC, 30 μM VPS26C and 300 μM SNX17FERM-CT, 25 mM Hepes pH 7.5, 150 mM NaCl, 25 °C; also pull-down. The method, then: Isothermal titration calorimetry (ITC) experiments were carried out on a Nano ITC calorimeter (TA Instruments). VPS26C and SNX17FERM-CT were dialyzed overnight at 4 °C against 25 mM Hepes pH 7.5, 150 mM NaCl, and 0.5 mM TCEP, and degassed for 30 min at 25 °C before titration. The titration experiments were conducted at 25 °C with one initial 1.5 μl injection followed by 19 injections of 2.5 μl with a spacing of 300 s between injections. To determine the heat of dilution similar injections of SNX17FERM-CT in buffer were carried out. The resulting titration data were analyzed using NanoAnalyze software (TA Instruments).

Experiment [2] is described as follows: Liposome co-sedimentation assay. Particulars: protein alone (2 μM) with PI3P-containing LUVs (1 mM), 25 mM Hepes pH 7.5, 200 mM NaCl, 1 h room temperature; Coomassie densitometry; mean ± SD. In kind it is binding. The method, then:
All lipids were purchased from Avanti Polar Lipids, INC. (Alabaster, AL) and dissolved in a final 20:9 molar ratio of chloroform:methanol. The lipid composition of liposomes consisted of DOPC, DOPE, DOPS, 18:1 PI(3)P, and 1,2-dioleoyl-sn-glycero-3-phosphoethanolamine-N-(lissamine rhodamine B sulfonyl) (18:1 Liss Rhod PE) in a final molar ratio of 44.7:29.3:20.0:5.0:1.0, respectively. Vesicles were prepared using the same thin-film hydration method described for GUVs, followed by extrusion to get a more homogeneous vesicle population. A mini extruder (Avanti Polar Lipids) and Whatman Nucleopore track-etched membranes with a pore size of 0.4 μm (Cytiva) were used to obtain Large Unilamellar Vesicles (LUVs). The extrusion buffer (25 mM Hepes pH 7.5, 1 mM TCEP) was supplemented with 250 mM raffinose pentahydrate to produce vesicles filled with raffinose. These vesicles can be separated from the aqueous solution in co-sedimentation assays by centrifugation (Julkowska et al, [2013]). […]
For co-sedimentation experiments, the working buffer (25 mM Hepes pH 7.5, 200 mM NaCl, 1 mM TCEP), proteins (Retriever, HisSumo-SNX17, and His10-L2FBR or His10-LRP1ICD in a 2:2:4 μM ratio), and liposomes (1 mM final concentration) were sequentially mixed into 0.5 ml tubes. […] Quantification of signal intensity was determined using Empiria Studio Software (LI-COR). […]

On to “SNX17: recombinant sorting nexin 17; His-Sumo3-SNX17 in co-sedimentation, SNX17FERM-CT in ITC”, for which the “interaction with VPS26C” value in experiment [1] is on record as “no direct interaction”. Further, the “percentage of total protein bound to the pellet” value in experiment [2] is on record as 64 ± 17%.
